According to patent publication US20160024496:
Like-named read-outs stand apart in the source and are kept apart here.

What was measured:
[1] = test system: T1, DPH2 (Homo sapiens), Q9BQC3-2; details: proteome array
T1 sequence: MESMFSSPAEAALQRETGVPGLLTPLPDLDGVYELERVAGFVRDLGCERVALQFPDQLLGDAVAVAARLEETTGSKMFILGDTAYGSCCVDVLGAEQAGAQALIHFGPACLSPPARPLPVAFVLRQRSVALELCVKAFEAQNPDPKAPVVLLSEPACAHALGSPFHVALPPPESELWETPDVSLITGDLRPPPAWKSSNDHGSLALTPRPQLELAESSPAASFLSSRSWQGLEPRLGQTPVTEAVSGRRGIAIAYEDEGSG

RANGAP1 (Homo sapiens) = molecular target: T2, RANGAP1 (Homo sapiens) (UniProt P46060); details: proteome array, scrambled control
T2 sequence: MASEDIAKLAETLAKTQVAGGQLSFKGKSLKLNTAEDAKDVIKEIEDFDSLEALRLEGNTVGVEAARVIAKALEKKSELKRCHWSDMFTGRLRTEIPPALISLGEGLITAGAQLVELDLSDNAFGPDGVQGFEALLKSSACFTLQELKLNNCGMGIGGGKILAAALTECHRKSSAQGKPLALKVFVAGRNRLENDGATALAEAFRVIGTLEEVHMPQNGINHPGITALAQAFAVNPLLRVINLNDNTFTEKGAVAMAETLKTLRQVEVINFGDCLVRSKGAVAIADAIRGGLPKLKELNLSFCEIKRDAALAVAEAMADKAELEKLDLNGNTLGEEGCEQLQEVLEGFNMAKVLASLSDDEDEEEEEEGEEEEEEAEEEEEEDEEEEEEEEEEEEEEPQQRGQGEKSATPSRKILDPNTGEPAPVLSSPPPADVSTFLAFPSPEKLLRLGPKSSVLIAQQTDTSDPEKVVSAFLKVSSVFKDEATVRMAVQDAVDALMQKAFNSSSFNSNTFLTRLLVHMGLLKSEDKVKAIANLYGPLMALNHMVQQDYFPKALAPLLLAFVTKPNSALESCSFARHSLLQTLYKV

[2] = test system: MITF (Homo sapiens), O75030-2; details: proteome array, scrambled control
MITF (Homo sapiens), O75030-2, sequence (O75030 other isoform, or with tags, fused parts or gaps): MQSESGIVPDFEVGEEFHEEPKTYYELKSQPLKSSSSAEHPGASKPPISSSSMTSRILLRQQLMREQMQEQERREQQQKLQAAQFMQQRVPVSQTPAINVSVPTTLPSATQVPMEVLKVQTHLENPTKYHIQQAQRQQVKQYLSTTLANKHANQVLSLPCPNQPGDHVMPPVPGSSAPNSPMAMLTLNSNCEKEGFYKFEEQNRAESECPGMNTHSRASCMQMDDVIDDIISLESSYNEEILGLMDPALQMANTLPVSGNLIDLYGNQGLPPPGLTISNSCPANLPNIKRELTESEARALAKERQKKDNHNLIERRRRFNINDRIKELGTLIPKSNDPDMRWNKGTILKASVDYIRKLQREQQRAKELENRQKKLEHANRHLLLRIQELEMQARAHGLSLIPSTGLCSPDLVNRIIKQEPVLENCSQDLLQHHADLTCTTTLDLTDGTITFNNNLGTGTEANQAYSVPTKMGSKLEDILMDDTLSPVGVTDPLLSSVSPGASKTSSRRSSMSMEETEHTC

ORAOV1 (Homo sapiens) = molecular target: T3, ORAOV1 (Homo sapiens) (UniProt Q8WV07); details: proteome array, scrambled control
T3 sequence: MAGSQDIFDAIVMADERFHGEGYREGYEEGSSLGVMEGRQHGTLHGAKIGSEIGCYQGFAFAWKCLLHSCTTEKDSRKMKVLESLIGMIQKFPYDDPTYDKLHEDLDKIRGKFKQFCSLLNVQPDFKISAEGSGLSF

WBP11 (Homo sapiens) = WBP11 (Homo sapiens) (UniProt Q9Y2W2); details: proteome array, scrambled control
WBP11 (Homo sapiens), sequence (Q9Y2W2 whole entry): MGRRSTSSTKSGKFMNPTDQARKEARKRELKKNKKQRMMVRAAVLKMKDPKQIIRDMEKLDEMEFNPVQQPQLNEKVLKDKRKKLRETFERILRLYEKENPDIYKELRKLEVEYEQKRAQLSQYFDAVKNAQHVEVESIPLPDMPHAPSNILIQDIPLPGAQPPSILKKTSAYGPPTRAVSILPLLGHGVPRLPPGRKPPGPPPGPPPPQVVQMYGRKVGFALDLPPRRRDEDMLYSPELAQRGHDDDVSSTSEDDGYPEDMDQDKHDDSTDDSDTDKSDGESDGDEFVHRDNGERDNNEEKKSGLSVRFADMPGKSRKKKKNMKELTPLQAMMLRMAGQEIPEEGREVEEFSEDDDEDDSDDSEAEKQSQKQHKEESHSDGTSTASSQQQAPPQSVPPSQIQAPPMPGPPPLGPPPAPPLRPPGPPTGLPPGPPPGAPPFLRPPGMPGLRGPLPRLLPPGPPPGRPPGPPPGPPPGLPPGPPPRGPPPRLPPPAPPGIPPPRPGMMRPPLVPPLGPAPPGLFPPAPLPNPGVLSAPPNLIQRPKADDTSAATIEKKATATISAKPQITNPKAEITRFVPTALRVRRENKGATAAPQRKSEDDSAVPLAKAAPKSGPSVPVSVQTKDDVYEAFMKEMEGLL

NUDT6 (Homo sapiens) = molecular target: T4, NUDT6 (Homo sapiens) (UniProt P53370); details: proteome array, scrambled control
T4 sequence: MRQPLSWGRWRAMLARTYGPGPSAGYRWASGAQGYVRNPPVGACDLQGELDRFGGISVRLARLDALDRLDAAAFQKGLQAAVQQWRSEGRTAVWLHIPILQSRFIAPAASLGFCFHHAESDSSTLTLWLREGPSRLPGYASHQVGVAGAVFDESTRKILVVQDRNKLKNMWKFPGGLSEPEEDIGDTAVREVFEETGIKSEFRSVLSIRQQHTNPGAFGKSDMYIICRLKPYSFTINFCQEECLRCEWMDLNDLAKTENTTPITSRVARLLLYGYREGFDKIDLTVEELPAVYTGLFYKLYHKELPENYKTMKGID

TRIM32 (Homo sapiens) = TRIM32 (Homo sapiens) (UniProt Q13049); details: proteome array, scrambled control
TRIM32 (Homo sapiens), sequence (Q13049 whole entry): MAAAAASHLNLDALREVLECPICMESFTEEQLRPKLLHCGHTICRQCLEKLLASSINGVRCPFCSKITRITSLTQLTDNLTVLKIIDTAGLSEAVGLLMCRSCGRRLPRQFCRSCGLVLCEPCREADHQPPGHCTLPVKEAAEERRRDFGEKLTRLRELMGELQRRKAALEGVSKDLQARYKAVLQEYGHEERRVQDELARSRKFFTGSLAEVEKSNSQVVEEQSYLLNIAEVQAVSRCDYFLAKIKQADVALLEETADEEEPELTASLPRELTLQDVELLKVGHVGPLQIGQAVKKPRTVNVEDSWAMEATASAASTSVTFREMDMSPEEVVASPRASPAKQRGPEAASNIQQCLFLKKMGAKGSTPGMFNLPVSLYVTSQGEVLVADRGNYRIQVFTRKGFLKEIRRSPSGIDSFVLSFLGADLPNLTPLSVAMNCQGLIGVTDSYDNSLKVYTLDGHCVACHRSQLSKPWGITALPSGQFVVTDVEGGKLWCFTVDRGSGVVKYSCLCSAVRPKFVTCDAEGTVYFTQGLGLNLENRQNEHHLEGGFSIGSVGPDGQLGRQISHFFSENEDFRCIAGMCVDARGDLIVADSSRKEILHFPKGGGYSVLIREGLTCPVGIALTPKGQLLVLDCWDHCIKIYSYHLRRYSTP

[3] = test system: SOX6 (Homo sapiens), P35712-4; details: proteome array, scrambled control
SOX6 (Homo sapiens), P35712-4, sequence (P35712 other isoform, or with tags, fused parts or gaps): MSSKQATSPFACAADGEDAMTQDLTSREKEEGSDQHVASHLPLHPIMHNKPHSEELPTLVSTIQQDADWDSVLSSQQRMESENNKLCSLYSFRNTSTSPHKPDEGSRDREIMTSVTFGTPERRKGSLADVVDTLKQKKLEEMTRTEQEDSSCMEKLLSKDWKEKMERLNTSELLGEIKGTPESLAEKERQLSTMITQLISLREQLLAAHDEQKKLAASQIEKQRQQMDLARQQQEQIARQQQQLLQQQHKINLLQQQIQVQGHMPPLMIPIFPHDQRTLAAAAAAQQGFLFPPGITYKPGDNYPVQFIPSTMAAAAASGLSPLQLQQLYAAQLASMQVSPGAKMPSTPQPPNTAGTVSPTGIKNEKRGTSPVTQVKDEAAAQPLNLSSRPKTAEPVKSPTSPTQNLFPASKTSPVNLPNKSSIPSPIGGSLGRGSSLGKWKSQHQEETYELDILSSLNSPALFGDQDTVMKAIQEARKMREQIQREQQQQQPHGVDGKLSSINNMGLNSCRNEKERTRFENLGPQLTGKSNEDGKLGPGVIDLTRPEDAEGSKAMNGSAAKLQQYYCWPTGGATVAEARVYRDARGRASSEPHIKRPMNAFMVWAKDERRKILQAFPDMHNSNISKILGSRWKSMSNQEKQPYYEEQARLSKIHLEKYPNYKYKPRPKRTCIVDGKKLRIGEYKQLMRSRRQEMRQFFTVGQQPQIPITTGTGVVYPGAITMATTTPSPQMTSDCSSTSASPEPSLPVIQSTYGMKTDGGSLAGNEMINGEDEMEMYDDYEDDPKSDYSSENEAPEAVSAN

[4] = test system: ZNF695 (Homo sapiens), Q8IW36-1; details: proteome array
ZNF695 (Homo sapiens), Q8IW36-1, sequence (Q8IW36 other isoform, or with tags, fused parts or gaps): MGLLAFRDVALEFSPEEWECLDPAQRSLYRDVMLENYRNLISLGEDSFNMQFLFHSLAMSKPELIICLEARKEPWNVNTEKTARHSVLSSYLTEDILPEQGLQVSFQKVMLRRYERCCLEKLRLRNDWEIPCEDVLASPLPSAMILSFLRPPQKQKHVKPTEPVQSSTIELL

HMGB2 (Homo sapiens) = molecular target: T5, HMGB2 (Homo sapiens) (UniProt P26583); details: proteome array, scrambled control
T5 sequence: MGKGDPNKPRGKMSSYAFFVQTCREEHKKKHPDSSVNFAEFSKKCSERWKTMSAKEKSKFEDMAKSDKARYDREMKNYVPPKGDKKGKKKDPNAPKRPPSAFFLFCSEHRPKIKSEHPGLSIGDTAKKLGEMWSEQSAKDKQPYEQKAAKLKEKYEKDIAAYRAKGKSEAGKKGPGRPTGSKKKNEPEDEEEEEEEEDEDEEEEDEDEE

PGA5 (Homo sapiens) = PGA5 (Homo sapiens) (UniProt P0DJD9); details: proteome array, scrambled control
PGA5 (Homo sapiens), sequence (P0DJD9 16-388): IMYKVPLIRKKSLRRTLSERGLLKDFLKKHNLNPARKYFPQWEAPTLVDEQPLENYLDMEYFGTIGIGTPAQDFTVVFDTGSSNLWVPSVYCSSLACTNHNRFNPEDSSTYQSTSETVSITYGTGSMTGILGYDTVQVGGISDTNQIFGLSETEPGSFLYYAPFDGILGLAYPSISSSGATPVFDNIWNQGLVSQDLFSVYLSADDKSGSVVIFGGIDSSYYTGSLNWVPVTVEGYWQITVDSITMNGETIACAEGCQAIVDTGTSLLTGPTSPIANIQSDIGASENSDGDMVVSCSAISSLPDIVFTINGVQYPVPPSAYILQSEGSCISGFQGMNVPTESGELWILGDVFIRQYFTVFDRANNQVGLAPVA

CYP2C9 (Homo sapiens) = CYP2C9 (Homo sapiens) (UniProt P11712); details: proteome array, scrambled control
CYP2C9 (Homo sapiens), sequence (P11712 whole entry): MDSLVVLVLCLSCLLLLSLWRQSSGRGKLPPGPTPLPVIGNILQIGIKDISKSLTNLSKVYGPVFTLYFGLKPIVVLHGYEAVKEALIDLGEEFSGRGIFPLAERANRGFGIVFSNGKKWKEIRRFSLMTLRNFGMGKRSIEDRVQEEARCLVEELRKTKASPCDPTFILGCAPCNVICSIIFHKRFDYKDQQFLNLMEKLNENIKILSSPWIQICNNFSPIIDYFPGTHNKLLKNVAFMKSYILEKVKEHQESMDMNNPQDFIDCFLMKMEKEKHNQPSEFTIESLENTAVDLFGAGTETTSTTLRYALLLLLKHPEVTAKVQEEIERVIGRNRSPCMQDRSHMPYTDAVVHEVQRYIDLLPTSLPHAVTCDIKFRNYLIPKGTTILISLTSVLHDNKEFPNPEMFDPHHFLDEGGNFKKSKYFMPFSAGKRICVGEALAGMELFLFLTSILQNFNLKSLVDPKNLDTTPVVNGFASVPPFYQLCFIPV

[5] = test system: T6, DAZ2 (Homo sapiens), Q13117-3; details: proteome array, scrambled control
T6 sequence: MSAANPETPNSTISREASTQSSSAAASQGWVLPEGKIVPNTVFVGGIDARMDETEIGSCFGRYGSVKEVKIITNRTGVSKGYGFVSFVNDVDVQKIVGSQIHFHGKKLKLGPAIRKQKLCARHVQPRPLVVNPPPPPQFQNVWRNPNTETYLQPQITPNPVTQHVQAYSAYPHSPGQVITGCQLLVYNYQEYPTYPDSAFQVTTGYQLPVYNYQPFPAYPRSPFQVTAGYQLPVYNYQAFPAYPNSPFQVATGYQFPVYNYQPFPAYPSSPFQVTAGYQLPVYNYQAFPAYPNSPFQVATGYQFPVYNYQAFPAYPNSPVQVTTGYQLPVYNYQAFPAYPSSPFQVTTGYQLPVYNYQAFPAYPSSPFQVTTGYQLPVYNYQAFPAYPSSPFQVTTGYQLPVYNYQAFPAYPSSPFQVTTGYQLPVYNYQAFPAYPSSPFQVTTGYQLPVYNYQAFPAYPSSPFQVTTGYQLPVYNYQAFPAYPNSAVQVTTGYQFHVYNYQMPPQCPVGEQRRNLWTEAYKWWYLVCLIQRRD

ADARB2 (Homo sapiens) = molecular target: T7, ADARB2 (Homo sapiens) (UniProt Q9NS39); details: proteome array, scrambled control
T7 sequence: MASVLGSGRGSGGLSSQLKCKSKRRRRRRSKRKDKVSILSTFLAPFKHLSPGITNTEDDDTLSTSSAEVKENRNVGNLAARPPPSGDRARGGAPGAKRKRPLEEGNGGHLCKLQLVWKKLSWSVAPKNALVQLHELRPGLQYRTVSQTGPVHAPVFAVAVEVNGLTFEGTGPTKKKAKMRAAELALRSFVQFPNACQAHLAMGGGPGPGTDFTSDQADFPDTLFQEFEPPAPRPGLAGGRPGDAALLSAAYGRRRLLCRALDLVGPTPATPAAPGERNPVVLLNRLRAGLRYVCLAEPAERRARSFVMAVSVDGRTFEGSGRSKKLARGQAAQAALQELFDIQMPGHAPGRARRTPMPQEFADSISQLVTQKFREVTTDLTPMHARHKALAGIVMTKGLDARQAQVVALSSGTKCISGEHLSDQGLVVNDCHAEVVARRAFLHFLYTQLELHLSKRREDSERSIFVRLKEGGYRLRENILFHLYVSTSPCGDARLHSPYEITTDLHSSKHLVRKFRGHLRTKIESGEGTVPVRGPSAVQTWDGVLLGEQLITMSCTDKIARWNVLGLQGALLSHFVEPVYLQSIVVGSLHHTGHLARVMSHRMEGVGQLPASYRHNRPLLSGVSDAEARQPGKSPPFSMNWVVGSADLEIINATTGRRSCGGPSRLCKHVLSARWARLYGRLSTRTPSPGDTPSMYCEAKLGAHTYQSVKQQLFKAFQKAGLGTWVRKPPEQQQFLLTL

TCL1B (Homo sapiens) = molecular target: T8, TCL1B (Homo sapiens) (UniProt O95988); details: proteome array, scrambled control
T8 sequence: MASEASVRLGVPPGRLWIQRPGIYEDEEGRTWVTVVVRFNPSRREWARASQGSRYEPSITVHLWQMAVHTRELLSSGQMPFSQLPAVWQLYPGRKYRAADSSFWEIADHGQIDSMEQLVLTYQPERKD

JARID2 (Homo sapiens) = JARID2 (Homo sapiens) (UniProt Q92833); details: proteome array, scrambled control
JARID2 (Homo sapiens), sequence (Q92833 whole entry): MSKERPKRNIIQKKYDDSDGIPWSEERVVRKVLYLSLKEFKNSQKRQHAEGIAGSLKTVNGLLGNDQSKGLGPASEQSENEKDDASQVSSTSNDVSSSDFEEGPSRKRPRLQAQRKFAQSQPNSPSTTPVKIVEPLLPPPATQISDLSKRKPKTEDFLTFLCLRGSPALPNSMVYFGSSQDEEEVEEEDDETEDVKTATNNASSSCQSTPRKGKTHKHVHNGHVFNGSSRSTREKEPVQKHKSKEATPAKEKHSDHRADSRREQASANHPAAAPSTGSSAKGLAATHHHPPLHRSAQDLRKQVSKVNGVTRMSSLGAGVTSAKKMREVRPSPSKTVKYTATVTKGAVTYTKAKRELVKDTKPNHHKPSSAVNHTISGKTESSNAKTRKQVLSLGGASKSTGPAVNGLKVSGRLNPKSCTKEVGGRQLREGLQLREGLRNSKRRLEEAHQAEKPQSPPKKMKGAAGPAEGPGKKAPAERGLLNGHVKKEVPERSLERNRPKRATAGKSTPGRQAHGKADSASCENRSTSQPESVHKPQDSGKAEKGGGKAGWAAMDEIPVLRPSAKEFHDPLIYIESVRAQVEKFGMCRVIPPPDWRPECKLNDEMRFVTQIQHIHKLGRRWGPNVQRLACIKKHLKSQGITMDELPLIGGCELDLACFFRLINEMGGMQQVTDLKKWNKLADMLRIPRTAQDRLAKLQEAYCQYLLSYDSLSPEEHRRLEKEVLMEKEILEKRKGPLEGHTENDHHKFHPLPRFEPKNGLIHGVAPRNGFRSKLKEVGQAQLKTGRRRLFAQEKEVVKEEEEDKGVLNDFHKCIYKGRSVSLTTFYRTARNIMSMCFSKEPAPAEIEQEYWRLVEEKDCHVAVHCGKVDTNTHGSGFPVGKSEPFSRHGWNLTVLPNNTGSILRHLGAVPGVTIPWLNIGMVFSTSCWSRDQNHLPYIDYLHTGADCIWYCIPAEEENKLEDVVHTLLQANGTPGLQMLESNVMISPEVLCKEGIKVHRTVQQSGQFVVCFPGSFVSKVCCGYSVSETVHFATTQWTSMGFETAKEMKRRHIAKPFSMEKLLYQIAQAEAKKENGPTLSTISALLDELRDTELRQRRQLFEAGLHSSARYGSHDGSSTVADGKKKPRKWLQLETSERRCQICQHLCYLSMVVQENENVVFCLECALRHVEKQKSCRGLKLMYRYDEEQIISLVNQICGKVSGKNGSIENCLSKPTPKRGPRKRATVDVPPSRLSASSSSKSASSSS

PTER (Homo sapiens) = molecular target: T9, PTER (Homo sapiens) (UniProt Q96BW5); details: proteome array, scrambled control
T9 sequence: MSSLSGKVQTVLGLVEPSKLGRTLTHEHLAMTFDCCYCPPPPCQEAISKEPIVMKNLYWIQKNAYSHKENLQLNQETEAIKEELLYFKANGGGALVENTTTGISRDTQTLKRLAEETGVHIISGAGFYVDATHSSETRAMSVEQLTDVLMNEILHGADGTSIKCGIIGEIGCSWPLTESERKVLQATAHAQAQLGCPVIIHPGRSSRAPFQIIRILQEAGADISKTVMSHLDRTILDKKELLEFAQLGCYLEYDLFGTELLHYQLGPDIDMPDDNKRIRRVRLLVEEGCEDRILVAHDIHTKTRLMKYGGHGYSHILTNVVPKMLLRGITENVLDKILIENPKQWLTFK

MPP7 (Homo sapiens) = molecular target: T10, MPP7 (Homo sapiens) (UniProt Q5T2T1); details: proteome array, scrambled control
T10 sequence: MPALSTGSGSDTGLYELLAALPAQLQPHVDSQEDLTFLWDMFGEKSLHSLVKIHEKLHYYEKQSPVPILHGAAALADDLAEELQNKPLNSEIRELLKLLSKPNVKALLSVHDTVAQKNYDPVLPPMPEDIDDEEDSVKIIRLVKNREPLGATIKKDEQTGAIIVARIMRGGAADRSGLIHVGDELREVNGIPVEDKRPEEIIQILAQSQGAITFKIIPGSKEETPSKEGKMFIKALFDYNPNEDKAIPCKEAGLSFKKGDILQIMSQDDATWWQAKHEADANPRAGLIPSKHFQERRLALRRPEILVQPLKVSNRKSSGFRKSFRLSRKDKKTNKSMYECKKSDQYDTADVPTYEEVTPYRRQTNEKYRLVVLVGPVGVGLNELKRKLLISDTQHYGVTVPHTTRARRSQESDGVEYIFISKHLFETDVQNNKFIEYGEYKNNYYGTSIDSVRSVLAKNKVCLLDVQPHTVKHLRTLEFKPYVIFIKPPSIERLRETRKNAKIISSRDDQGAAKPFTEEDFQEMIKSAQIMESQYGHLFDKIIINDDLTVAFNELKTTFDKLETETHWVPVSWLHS

NDST1 (Homo sapiens) = molecular target: T11, NDST1 (Homo sapiens) (UniProt P52848); details: proteome array, scrambled control
T11 sequence: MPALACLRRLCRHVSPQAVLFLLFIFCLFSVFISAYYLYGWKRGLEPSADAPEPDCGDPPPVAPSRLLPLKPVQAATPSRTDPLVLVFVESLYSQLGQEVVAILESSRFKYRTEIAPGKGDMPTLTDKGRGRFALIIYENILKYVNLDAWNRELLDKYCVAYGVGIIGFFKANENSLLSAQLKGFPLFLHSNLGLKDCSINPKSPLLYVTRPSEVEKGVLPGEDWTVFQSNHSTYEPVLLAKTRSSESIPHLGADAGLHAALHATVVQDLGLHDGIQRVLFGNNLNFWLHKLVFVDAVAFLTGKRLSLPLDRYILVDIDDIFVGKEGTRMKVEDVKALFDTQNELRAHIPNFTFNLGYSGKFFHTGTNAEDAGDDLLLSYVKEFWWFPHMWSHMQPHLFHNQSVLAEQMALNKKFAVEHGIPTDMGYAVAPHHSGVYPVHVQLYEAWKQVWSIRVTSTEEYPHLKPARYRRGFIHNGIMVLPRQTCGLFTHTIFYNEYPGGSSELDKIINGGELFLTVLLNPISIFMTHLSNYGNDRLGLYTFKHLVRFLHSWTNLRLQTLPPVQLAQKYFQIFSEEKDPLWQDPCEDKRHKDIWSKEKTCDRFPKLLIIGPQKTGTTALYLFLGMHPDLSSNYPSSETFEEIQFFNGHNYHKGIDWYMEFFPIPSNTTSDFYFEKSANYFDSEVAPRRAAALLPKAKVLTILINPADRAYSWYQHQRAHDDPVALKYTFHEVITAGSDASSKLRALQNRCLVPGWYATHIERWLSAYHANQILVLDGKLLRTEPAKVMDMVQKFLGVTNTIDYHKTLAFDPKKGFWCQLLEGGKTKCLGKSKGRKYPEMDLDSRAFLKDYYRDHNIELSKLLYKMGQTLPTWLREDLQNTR

GC-scrambled RNA showed a binding signal ([1]; scrambled control) of 3.43 Z-score, a binding signal (RANGAP1 (Homo sapiens)) of 1.21 Z-score and a binding signal [2] of 6.71 Z-score. The binding signal (ORAOV1 (Homo sapiens)) was 0.41 Z-score, the binding signal (WBP11 (Homo sapiens)) was -0.17 Z-score and the binding signal (NUDT6 (Homo sapiens)) was 8.38 Z-score. For the same substance, the binding signal (TRIM32 (Homo sapiens)) was 4.63 Z-score, the binding signal [3] was 1.16 Z-score and the binding signal ([4]; scrambled control) was 2.18 Z-score. The binding signal (HMGB2 (Homo sapiens)) was 1.23 Z-score, the binding signal (PGA5 (Homo sapiens)) was 2.96 Z-score and the binding signal (CYP2C9 (Homo sapiens)) was 1.49 Z-score. For the same substance, the binding signal [5] was 7.8 Z-score, the binding signal (ADARB2 (Homo sapiens)) was -0.2 Z-score and the binding signal (TCL1B (Homo sapiens)) was 5.42 Z-score. The binding signal (JARID2 (Homo sapiens)) was 0.64 Z-score, the binding signal (PTER (Homo sapiens)) was 4.09 Z-score and the binding signal (MPP7 (Homo sapiens)) was 0.3 Z-score. It also gave a binding signal (NDST1 (Homo sapiens)) of 8.06 Z-score.

With “GGGGCCGGGGCCGGGGCCGGGGCCGGGGCCGGGGCCGGG [GGGGCCx6.5 RNA]” the binding signal ([1]; [none], delta Z 10.61) was 14 Z-score and the binding signal ([4]; [none], delta Z 2.58) was 4.76 Z-score.
